The test concerns the target CAPS1 (calcium-dependent activator protein for secretion, CADPS) (rat (endogenous in rat brain)) (UniProt Q62717). The experiment in a line: affinity purification with mass spectrometry; CAPS1 immunoprecipitate of detergent extract resolved by SDS-PAGE; Coomassie-stained bands seen in the CAPS1 but not the control immunoprecipitate excised, in-gel digests, LC-MS/MS.

Data on one substance can be found in PMC6579465.

CAPS1 (calcium-dependent activator protein for secretion, CADPS) (rat (endogenous in rat brain)), sequence (Q62717 whole entry): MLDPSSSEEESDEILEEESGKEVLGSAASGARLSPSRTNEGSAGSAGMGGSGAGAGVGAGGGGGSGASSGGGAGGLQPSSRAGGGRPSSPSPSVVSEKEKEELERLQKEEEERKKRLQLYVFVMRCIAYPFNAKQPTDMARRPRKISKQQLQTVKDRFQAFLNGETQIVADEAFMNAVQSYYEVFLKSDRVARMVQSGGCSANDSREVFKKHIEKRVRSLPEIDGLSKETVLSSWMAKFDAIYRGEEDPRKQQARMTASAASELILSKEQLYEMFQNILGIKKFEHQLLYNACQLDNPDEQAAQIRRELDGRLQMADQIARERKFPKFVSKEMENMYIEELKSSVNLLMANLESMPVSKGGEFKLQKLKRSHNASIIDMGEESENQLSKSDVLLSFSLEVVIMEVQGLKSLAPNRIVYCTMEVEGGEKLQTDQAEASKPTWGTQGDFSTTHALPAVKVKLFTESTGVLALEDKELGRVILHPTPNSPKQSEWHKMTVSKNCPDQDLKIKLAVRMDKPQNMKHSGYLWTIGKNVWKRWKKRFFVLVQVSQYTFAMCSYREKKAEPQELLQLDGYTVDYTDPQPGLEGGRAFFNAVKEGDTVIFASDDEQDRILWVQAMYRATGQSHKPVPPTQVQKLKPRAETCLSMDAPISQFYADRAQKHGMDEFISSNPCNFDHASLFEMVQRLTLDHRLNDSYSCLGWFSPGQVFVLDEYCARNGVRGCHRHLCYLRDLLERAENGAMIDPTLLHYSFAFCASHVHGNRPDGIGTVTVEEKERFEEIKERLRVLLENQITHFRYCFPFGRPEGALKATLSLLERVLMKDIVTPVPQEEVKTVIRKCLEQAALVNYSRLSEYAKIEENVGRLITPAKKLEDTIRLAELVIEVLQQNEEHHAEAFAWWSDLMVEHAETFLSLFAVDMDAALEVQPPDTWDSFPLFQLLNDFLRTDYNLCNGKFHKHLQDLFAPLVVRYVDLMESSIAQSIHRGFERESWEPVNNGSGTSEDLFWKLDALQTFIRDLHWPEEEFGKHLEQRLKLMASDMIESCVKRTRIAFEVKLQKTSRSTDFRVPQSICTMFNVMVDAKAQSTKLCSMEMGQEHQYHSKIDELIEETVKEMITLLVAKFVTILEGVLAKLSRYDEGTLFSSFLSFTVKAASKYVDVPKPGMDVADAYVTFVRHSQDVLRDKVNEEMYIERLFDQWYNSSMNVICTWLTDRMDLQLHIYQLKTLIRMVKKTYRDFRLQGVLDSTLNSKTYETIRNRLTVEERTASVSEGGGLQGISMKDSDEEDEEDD

For “Rabconnectin3α (Rbcn3α) / Dmx-like 2 (DMXL2) (natural protein)”, the stoichiometry relative to CAPS1 (bands of the immunoprecipitate) (Rbcn3 subunit : CAPS1) amounted to 0.167.
